Literature values, collected in article PMC7290885.
pKd: −log10 of the molar value. Like-named read-outs stand apart in the source and are kept apart here.

Key:
GLP-1R (Homo sapiens) [1] = molecular target: GLP-1R (Homo sapiens) (UniProt P43220)
GLP-1R (Homo sapiens) [2] = molecular target: GLP-1R (Homo sapiens) (UniProt P43220); remark: listed apart in the source
GLP-1R (Homo sapiens) [3] = molecular target: GLP-1R (Homo sapiens) (UniProt P43220); remark: listed apart in the source
GLP-1R (Homo sapiens) [4] = molecular target: GLP-1R (Homo sapiens) (UniProt P43220); remark: listed apart in the source

Chain of UniProt P43220 (P43220 24-463): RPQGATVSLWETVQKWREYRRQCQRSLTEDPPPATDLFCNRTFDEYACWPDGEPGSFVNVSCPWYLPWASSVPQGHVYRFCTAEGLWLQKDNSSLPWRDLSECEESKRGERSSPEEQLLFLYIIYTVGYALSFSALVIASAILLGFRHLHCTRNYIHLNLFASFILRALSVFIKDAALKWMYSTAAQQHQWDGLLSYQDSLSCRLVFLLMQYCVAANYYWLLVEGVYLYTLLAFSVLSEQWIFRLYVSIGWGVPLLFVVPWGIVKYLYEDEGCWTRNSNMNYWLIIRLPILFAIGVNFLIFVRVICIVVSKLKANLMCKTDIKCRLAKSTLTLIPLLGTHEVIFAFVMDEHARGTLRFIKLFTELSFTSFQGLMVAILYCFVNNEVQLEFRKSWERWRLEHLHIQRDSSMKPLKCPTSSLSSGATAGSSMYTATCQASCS

For “LCA-Di (exendin-4 derivative) (from UniProt P26349)”, the pKd (GLP-1R (Homo sapiens) [1]) is listed as 7.14.

In the case of “LCA-M1 (exendin-4 derivative) (from UniProt P26349)”, the pKd (GLP-1R (Homo sapiens) [2]) is listed as 9.33.

In the case of “LCA-M2 (exendin-4 derivative) (from UniProt P26349)”, the pKd (GLP-1R (Homo sapiens) [3]) is given as 9.26.

For exendin-4 (from UniProt P26349), the pKd (GLP-1R (Homo sapiens) [4]) is given as 9.85.
